{
  "source": "patent US7326418B2",
  "about": "“Identification of novel factors that block programmed cell death or apoptosis by targeting JNK” (University of Chicago, priority 2001, dated 2008)",
  "molecules": {"B1": {"name": "Gadd45β: purified recombinant His6-tagged Gadd45β protein; also used generically for the recombinant Gadd45β proteins (protein, UniProt O75293 1-160, looked up)", "Growth arrest and DNA …": "MTLEELVACDNAAQKMQTVTAAVEELLVAAQRQDRLTVGVYESAKLMNVDPDSVVLCLLAIDEEEEDDIALQIHFTLIQSFCCDNDINIVRVSGMQRLAQLLGEPAETQGTTEARDLHCLLVTNPHTDAWKSHGLVEVASYCEESRGNNQWVPYISLQER", "modifications": "His6 tag", "notes": "purified recombinant His6-tagged Gadd45β protein; also used generically for the recombinant Gadd45β proteins"}, "B2": {"name": "His6-Gadd45β: human full-length Gadd45β purified from E. coli as His6-tagged protein (protein, UniProt O75293 1-160, looked up)", "chain": "MTLEELVACDNAAQKMQTVTAAVEELLVAAQRQDRLTVGVYESAKLMNVDPDSVVLCLLAIDEEEEDDIALQIHFTLIQSFCCDNDINIVRVSGMQRLAQLLGEPAETQGTTEARDLHCLLVTNPHTDAWKSHGLVEVASYCEESRGNNQWVPYISLQER", "modifications": "full-length His6 tag", "notes": "human full-length Gadd45β purified from E. coli as His6-tagged protein"}, "B3": {"name": "GST-Gadd45β: full-length murine Gadd45β directly fused to GST, purified from E. coli (protein)", "chain": "MTLEELVASDNAVQKMQAVTAAVEQLLVAAQRQDRLTVGVYEAAKLMNVDPDSVVLCLLAIDEEEEDDIALQIHFTLIQSFCCDNDIDIVRVSGMQRLAQLLGEPAETLGTTEARDLHCLLVTNCHTDSWKSQGLVEVASYCEESRGNNQWVPYISLEER", "modifications": "left off: a dimerising Fc or GST", "notes": "full-length murine Gadd45β directly fused to GST, purified from E. coli"}},
  "biological_target": "T1, JNKK1/MKK4 (Mus musculus, UniProt P47809)",
  "T1 construct": "expressed in transfected cells; host or cells: HEK-293; anti-FLAG immunoprecipitate",
  "T1 sequence (P47809 2-397)": "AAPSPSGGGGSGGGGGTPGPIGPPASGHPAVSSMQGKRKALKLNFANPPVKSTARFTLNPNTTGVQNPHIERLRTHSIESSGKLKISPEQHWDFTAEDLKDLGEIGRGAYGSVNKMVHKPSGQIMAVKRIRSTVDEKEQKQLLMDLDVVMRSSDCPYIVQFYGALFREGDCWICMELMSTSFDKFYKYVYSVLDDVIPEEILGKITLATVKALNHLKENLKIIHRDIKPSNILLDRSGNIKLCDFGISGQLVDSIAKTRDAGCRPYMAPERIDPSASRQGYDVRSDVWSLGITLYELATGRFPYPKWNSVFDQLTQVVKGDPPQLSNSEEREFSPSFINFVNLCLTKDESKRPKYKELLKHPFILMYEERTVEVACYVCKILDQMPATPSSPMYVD",
  "assay": "Kinase assay of immunoprecipitated FLAG-JNKK1/MKK4 with recombinant Gadd45β proteins",
  "assay_type": "biochemical",
  "settings": "in vitro, even at high concentrations",
  "protocol": "Next, the functional consequences, in vitro, of the physical interactions of Gadd45β with kinases in the JNK pathway were assessed. Murine and human, full-length Gadd45J3 proteins were purified from E. coli as GST-Gadd45β and His6-tagged Gadd45β (His6 disclosed as SEQ ID NO: 46), respectively, according to standard procedures. Prior to employing these proteins in in vitro assays, purity of all recombinant polypeptides was assured by >98%, by performing Coomassie blue staining of SDS polyacrylamide gels. Then, the ability of these proteins, as well as of control GST and His6-EF3 (His6 disclosed as SEQ ID NO: 46)proteins, to inhibit kinases in the JNK pathways was monitored in vitro. FLAG-tagged JNKK2, JNKK1, MKK3, and ASK1 were immunoprecipitated from transiently transfected 293 cells using anti-FLAG antibodies and pre-incubated for 10 minutes with increasing concentrations of recombinant proteins, prior to the addition of specific kinase substrates (i.e. GST-JNK1 with JNKK1 and JNKK2; GST-p38[…] with MKK3; GST-JNNK1 or GST-JNKK2 with ASK1). […] These findings indicate that, upon binding to Gadd45β, JNKK2 is effectively inactivated.\nA question was whether Gadd45β inhibited active MKK7, in vitro. FLAG-MKK7 was immunoprecipitated from TNFα-treated or untreated 293 cells, and kinase assays were performed in the presence of purified His6-Gadd45β (His6 disclosed as SEQ ID NO: 46), GST-Gadd45β, or control proteins (FIG. 28d; see also FIG. 28g). […] Consistent with the in vivo findings (FIG. 27), the inhibitory activity of Gadd45β was specific. […] Indeed, the effects of Gadd45β on MKK7 phosphorylation by TNFα may be due inhibition of the MKK7 ability to auto-phoshorylate and/or to serve as substrate for upstream kinases. Altogether, the findings identify MKK7 as a target of Gadd45β, and of NF-[…]B, in the JNK cascade. Of interest, MKK7 is a selective activator of JNK, and its ablation abolishes JNK activation by TNFα. Thus, blockade of MKK7 is sufficient on its own to explain the effects of Gadd45β on JNK signaling—i.e. its specific and near-complete suppression of this signaling. […]",
  "data": [
    {"molecule": "B1", "values": [
      {"measurement": "effect on JNKK1/MKK4 kinase activity", "value": "did not hamper"}
    ]},
    {"molecule": "B2", "values": [
      {"measurement": "effect on JNKK1/MKK4 kinase activity", "value": "neither GST-Gadd45β nor His6-Gadd45β (His6 disclosed as SEQ ID NO: 46) had significant effects"}
    ]},
    {"molecule": "B3", "values": [
      {"measurement": "effect on JNKK1/MKK4 kinase activity", "value": "neither GST-Gadd45β nor His6-Gadd45β (His6 disclosed as SEQ ID NO: 46) had significant effects"}
    ]}
  ]
}
